± gives the uncertainty stated by the source.
B1: Membrane-associated guanylate kinase, WW and PDZ domain-containing protein 3, residues 287 to 329; numbered along this chain, Q5TCQ9 (parent)
chain: MRDETLEPLPKNWEMAYTDTGMIYFIDHNTKTTTWLDPRLCKK
B2: Zinc finger homeobox protein 3, residues 2643 to 2698; numbered along this chain, Q15911 (parent)
chain: RLRTTITPEQLEILYQKYLLDSNPTRKMLDHIAHEVGLKKRVVQVWFQNTRARERK

Variants of: B1
Assay: abundance fitness (aPCA) (normalised: wild type 0, dead -1); higher = more abundant; growth selection in yeast, the domain comes from the species named
Conditions: Homo sapiens

Variant | abundance fitness
C41G | -0.004 ± 0.029
C41Y | -0.005 ± 0.055
C41D | -0.006 ± 0.039
C41A | 0.058 ± 0.028
C41R | -0.021 ± 0.029
C41P | 0.043 ± 0.041
C41V | 0.02 ± 0.03
C41Q | 0.04 ± 0.037
C41K | -0.015 ± 0.04
C41W | 0.007 ± 0.033
C41I | 0.059 ± 0.1
C41L | -0.013 ± 0.033
C41E | 0.038 ± 0.044
C41F | -0.044 ± 0.095
C41T | 0.01 ± 0.046
P38C | -1.12 ± 0.12
P38M | -0.83 ± 0.066
P38H | -0.806 ± 0.068
P38W | -0.963 ± 0.048
P38F | -0.95 ± 0.13

Variant | abundance fitness
P38A | -0.899 ± 0.046
P38R | -0.954 ± 0.041
P38G | -0.902 ± 0.033
P38T | -0.897 ± 0.068
P38D | -0.854 ± 0.064
P38E | -1.02 ± 0.062
P38Y | -1.17 ± 0.39
P38K | -0.994 ± 0.077
P38N | -1.04 ± 0.1
K43C | -0.065 ± 0.045
K43S | 0.002 ± 0.04
K43N | -0.062 ± 0.076
K43Q | 0.136 ± 0.15
K43E | 0.031 ± 0.07
K43L | -0.011 ± 0.11
K43A | 0.011 ± 0.072
K43G | 0.03 ± 0.043
K43V | -0.045 ± 0.065
K43I | -0.144 ± 0.047
K43H | -0.036 ± 0.05

Variant | abundance fitness
K43P | 0.042 ± 0.046
K43W | -0.044 ± 0.047
R39L | -0.349 ± 0.038
R39F | -0.635 ± 0.11
R39A | -0.233 ± 0.04
R39G | -0.314 ± 0.029
R39S | -0.259 ± 0.042
R39V | -0.301 ± 0.032
R39K | -0.309 ± 0.061
R39T | -0.22 ± 0.047
R39E | -0.244 ± 0.038
R39D | -0.317 ± 0.044
R39Q | -0.417 ± 0.045
R39P | -0.516 ± 0.035
R39M | -0.33 ± 0.034
R39N | -0.476 ± 0.17
R39C | -0.322 ± 0.041
R39I | -0.332 ± 0.075

Variants of: B2
Assay: as above
Conditions: Homo sapiens

Variant | abundance fitness
RLRTTITPEQLEILYQKELLDSNPTRKMLDHIAHEVGLKKRVVQVWFQNTRARERK | -0.948 ± 0.19
RLRTTITPEQLEILYQKYLLISNPTRKMLDHIAHEVGLKKRVVQVWFQNTRARERK | -0.533 ± 0.21
RLRTTITPEQLEILYQKYLLDSNDTRKMLDHIAHEVGLKKRVVQVWFQNTRARERK | -0.634 ± 0.13
RLRTTITPEQLEILYQKYLLDSNPTRKMLDHIAHEVGLCKRVVQVWFQNTRARERK | 0.184 ± 0.12
RLRTTITPEQLEILYQKYLLDSNPTRKMLDHIAHEVGLKKRVVQVWFQNTRAREIK | 0.142 ± 0.18
RLRTTITPEQLEILYQKYLLDSNPTRKMLDHIAHEVGSKKRVVQVWFQNTRARERK | -0.601 ± 0.099
RLRTTITPEQLEILYQGYLLDSNPTRKMLDHIAHEVGLKKRVVQVWFQNTRARERK | -0.528 ± 0.083
RLRTTITPEQLEILYQKYLLDSNPTRKMLDHIAHENGLKKRVVQVWFQNTRARERK | -0.761 ± 0.25
RLRTTITPEQLEILYQKYLLDSKPTRKMLDHIAHEVGLKKRVVQVWFQNTRARERK | -0.335 ± 0.17
RLRTTITPEQLEILYQKYLLDSNPTRKMLDHIAHEVGLKKRVVCVWFQNTRARERK | -0.193 ± 0.17
RLRTTITPEQLDILYQKYLLDSNPTRKMLDHIAHEVGLKKRVVQVWFQNTRARERK | -0.109 ± 0.12
RLRTTITPEQLFILYQKYLLDSNPTRKMLDHIAHEVGLKKRVVQVWFQNTRARERK | -0.282 ± 0.13

Reference: the Human Domainome abundance scans (Beltran et al. 2025)
